The text below walks through data of patent US7005505.

Read-outs that look alike come from different tables or passages of the source.

For test [1], the target named is KDR receptors on endothelial cells (bovine). Put plainly: cell-based or functional assay.
Test [2] shares this target. Put plainly: cell-based or functional assay. This is another data set of the same source.
The target of test [3] is KDR-IgG (UniProt P35968). Kind of test: competition with 125I-VEGF165 for KDR-IgG, radioligand plate assay.
For test [4], the target named is FLT-1 IgG (UniProt P17948). Put plainly: competition with 125I-VEGF165 for FLT-1-IgG, radioligand plate assay.
Test [5] deals with KDR-IgG (UniProt P35968). Kind of test: competition with 125I-VEGF165 for KDR-IgG, radioligand plate assay, no heparin.
The target in test [6] is FLT-1 IgG (UniProt P17948). Put plainly: competition with 125I-VEGF165 for FLT-1-IgG, radioligand plate assay, no heparin.

Chain of KDR-IgG (P35968 20-764): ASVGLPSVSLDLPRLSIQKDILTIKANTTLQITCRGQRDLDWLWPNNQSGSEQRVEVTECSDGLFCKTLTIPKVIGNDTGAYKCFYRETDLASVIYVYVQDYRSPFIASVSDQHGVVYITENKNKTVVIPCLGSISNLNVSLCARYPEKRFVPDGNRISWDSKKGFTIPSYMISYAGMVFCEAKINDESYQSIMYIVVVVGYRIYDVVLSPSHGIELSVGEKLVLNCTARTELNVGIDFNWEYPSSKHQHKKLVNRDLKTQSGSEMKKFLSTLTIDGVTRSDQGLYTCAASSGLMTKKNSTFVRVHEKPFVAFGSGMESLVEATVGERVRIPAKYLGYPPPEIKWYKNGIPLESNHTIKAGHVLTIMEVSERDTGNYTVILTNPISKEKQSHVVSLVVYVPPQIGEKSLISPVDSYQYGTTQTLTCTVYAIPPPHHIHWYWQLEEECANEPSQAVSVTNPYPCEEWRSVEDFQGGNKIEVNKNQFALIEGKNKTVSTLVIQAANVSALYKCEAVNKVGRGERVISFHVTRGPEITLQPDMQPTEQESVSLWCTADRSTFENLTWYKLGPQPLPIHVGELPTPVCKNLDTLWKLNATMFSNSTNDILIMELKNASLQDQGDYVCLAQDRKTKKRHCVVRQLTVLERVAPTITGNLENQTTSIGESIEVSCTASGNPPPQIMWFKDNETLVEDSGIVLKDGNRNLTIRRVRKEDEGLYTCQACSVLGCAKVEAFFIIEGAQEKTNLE
Chain of KDR receptors on endothelial cells (bovine) (P12820 29-1306): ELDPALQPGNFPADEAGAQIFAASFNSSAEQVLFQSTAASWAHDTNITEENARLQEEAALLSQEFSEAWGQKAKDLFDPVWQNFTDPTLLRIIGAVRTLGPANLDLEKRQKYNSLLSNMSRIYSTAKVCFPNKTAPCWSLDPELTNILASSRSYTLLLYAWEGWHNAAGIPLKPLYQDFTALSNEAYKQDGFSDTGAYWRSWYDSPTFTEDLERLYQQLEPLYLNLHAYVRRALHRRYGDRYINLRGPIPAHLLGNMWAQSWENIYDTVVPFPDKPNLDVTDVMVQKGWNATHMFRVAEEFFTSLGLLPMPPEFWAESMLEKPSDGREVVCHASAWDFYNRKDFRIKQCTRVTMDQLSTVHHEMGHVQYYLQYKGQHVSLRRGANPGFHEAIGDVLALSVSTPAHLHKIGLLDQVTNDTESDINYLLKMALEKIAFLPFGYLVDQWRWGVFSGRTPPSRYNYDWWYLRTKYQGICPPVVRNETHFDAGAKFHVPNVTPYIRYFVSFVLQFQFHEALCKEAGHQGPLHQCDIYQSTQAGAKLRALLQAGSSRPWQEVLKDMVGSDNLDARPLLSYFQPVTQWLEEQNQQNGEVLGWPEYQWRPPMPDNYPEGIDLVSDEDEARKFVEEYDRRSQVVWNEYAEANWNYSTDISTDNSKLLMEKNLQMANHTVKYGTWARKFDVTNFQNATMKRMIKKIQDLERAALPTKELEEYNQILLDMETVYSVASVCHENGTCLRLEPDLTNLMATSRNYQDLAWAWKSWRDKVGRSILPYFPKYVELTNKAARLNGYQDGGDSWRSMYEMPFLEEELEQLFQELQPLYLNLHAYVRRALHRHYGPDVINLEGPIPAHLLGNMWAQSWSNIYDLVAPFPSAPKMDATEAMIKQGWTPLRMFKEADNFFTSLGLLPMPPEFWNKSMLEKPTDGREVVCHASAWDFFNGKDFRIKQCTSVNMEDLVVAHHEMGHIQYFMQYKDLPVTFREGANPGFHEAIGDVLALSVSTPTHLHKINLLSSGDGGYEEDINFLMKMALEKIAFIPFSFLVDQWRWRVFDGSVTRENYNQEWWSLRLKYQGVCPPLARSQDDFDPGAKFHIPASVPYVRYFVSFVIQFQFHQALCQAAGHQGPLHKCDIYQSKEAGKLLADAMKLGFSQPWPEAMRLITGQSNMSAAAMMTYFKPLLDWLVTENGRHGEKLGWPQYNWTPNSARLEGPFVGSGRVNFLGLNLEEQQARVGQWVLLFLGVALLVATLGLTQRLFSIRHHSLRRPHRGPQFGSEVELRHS
Chain of FLT-1 IgG (P17948 27-758): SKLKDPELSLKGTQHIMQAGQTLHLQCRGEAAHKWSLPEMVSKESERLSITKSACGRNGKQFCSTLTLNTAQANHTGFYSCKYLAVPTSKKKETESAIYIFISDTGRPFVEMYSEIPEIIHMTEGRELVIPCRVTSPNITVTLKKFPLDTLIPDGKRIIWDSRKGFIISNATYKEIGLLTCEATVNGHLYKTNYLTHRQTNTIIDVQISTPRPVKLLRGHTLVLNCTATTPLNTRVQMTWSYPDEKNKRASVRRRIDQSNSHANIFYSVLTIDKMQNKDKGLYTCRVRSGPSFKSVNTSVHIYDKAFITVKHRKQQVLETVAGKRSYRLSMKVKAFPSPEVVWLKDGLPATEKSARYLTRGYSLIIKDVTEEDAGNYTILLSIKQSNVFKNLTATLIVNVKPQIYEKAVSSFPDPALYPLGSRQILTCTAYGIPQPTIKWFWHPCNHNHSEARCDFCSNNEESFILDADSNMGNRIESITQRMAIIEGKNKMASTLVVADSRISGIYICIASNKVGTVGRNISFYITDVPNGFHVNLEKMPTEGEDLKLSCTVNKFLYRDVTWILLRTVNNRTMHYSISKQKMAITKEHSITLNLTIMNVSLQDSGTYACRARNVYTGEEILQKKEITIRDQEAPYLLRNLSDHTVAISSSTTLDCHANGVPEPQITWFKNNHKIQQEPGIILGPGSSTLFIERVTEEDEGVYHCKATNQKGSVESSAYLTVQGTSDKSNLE

As to “K16A, D19T VEGF (from UniProt P15692 181-395) (ligand)”, the Half-Maximal Effective Concentration, Endothelial Cells came out at 2.05 ng/mL in test [1] and 53 pM in test [2]. In addition, the IC50 in the test with KDR-IgG [3] came to 2.1 ng/mL; with FLT-1 IgG [4] it was 0.73 ng/mL; with KDR-IgG [5], 26 pM; with FLT-1 IgG [6] it was 19 pM.
